Experiments:
[1] = molecular target: FapC from Pseudomonas putida F1, wild type (Pseudomonas putida F1); test: formic acid dissolution of fibrils with SDS-PAGE; mature fibrils in 0-100% formic acid, 30 min, room temperature; centrifuged; released monomer in the supernatant on SDS-PAGE, normalised to 100% FA
[2] = molecular target: FapC from Pseudomonas fluorescens Pf5, wild type (P. fluorescens Pf5); test: seeded ThT fibrillation kinetics, global fit with AmyloFit; 5 µM FapC UK4 monomer with 0-10% v/v sonicated fibril seeds of UK4, PAO1, Pf5 or F1 FapC; 40 µM ThT, 50 mM Tris/HCl pH 7.4, 37 °C, no shaking; constants of monomer addition to (k+) and release from (Koff) fibrils; time in hours
[3] = molecular target: FapC from Pseudomonas aeruginosa PAO1, wild type (Pseudomonas aeruginosa PAO1); test: as above
[4] = molecular target: FapC from Pseudomonas putida F1, wild type (Pseudomonas putida F1); test: as above
[5] = molecular target: FapC from P. fluorescens Pf5, wild type (P. fluorescens Pf5) (UniProt P0DXF5); test: formic acid dissolution of fibrils with SDS-PAGE; mature fibrils in 0-100% formic acid, 30 min, room temperature; centrifuged; released monomer in the supernatant on SDS-PAGE, normalised to 100% FA
[6] = molecular target: the molecule itself; test: ThT fluorescence fibrillation kinetics; self-assembly into amyloid without seeds; 15 µM FapC (wt or mutant; wt also 1-15 µM), 50 mM Tris/HCl pH 7.4, 40 µM ThT, 37 °C, no shaking, followed for 120 h

Row | Molecule | binding result [6] | other results
1 | FapC from Pseudomonas putida F1, wild type (natural protein) |  | formic acid needed to dissolve half of the fibrils [1]: 70 % FA
2 | FapC from Pseudomonas sp. UK4, wild type (from UniProt P0DXF5 25-250) (natural protein) |  | koff [2]: 9.11e-13 s⁻¹; koff [3]: 3.94e-14 s⁻¹; koff [4]: 1.96e-15 s⁻¹
3 | FapC from P. fluorescens Pf5, wild type (from UniProt P0DXF5 25-250) (natural protein) |  | formic acid needed to dissolve half of the fibrils [5]: 70 % FA
4 | FapC UK4 Asn200Ala (natural protein, Pseudomonas sp. UK4, FapC, Pseudomonas sp; UK4, point mutant made on the FapC UK4 plasmid; Same construct as m1 but for the mutation; source: E. coli BL21 (DE3), purified (Ni-NTA in 7.5 M guanidine hydrochloride), desalted) GPAEKWKPTPAPTGTVAAAVTDTQVSKDNKFDDTKTLNNAGANGSLSNSKGNLGANIAAGSGNQQDNAAAITSSAGDAATVFAVADIYQESKDNKFTNKGTQNNALLNNSANNSSGNVGVNVAAGQGNQQKNNLAIVTADGKNVAAASNTEQVSLDNHFLNEASSKHSYKPQYVVANAGLLNSANNASGNIGVNVAAGAGNQQSNTLTLGSGCTVCAAGTGSKLAF | binds | 
5 | FapC UK4 Gly75Pro (natural protein, Pseudomonas sp. UK4, FapC, Pseudomonas sp; UK4, point mutant made on the FapC UK4 plasmid; Same construct as m1 but for the mutation; source: E. coli BL21 (DE3), purified (Ni-NTA in 7.5 M guanidine hydrochloride), desalted) GPAEKWKPTPAPTGTVAAAVTDTQVSKDNKFDDTKTLNNAGANGSLSNSKPNLGANIAAGSGNQQDNAAAITSSAGDAATVFAVADIYQESKDNKFTNKGTQNNALLNNSANNSSGNVGVNVAAGQGNQQKNNLAIVTADGKNVAAASNTEQVSLDNHFLNEASSKHSYKPQYVVNNAGLLNSANNASGNIGVNVAAGAGNQQSNTLTLGSGCTVCAAGTGSKLAF | binds | 
6 | FapC UK4 N145A (natural protein, Pseudomonas sp. UK4, FapC, Pseudomonas sp; UK4, point mutant made on the FapC UK4 plasmid; Same construct as m1 but for the mutation; source: E. coli BL21 (DE3), purified (Ni-NTA in 7.5 M guanidine hydrochloride), desalted) GPAEKWKPTPAPTGTVAAAVTDTQVSKDNKFDDTKTLNNAGANGSLSNSKGNLGANIAAGSGNQQDNAAAITSSAGDAATVFAVADIYQESKDNKFTNKGTQNNALLNNSANNSSGNVGVAVAAGQGNQQKNNLAIVTADGKNVAAASNTEQVSLDNHFLNEASSKHSYKPQYVVNNAGLLNSANNASGNIGVNVAAGAGNQQSNTLTLGSGCTVCAAGTGSKLAF | binds | 
7 | FapC UK4 Gly84Ala (natural protein, Pseudomonas sp. UK4, FapC, Pseudomonas sp; UK4, point mutant made on the FapC UK4 plasmid; Same construct as m1 but for the mutation; also called G84A; source: E. coli BL21 (DE3), purified (Ni-NTA in 7.5 M guanidine hydrochloride), desalted) GPAEKWKPTPAPTGTVAAAVTDTQVSKDNKFDDTKTLNNAGANGSLSNSKGNLGANIAAASGNQQDNAAAITSSAGDAATVFAVADIYQESKDNKFTNKGTQNNALLNNSANNSSGNVGVNVAAGQGNQQKNNLAIVTADGKNVAAASNTEQVSLDNHFLNEASSKHSYKPQYVVNNAGLLNSANNASGNIGVNVAAGAGNQQSNTLTLGSGCTVCAAGTGSKLAF | binds | 
8 | FapC UK4 Gln227Ala (natural protein, Pseudomonas sp. UK4, FapC, Pseudomonas sp; UK4, point mutant made on the FapC UK4 plasmid; Same construct as m1 but for the mutation; source: E. coli BL21 (DE3), purified (Ni-NTA in 7.5 M guanidine hydrochloride), desalted) GPAEKWKPTPAPTGTVAAAVTDTQVSKDNKFDDTKTLNNAGANGSLSNSKGNLGANIAAGSGNQQDNAAAITSSAGDAATVFAVADIYQESKDNKFTNKGTQNNALLNNSANNSSGNVGVNVAAGQGNQQKNNLAIVTADGKNVAAASNTEQVSLDNHFLNEASSKHSYKPQYVVNNAGLLNSANNASGNIGVNVAAGAGNQASNTLTLGSGCTVCAAGTGSKLAF | binds | 
9 | FapC UK4 Lys155Asp and Ser228Asp (natural protein, Pseudomonas sp. UK4, FapC, Pseudomonas sp; UK4, double charge mutant made on the FapC UK4 plasmid; Same construct as m1 but for the mutations; also called cluster of four negative charges (Asp46, Asp90, Asp155, and Asp228); source: E. coli BL21 (DE3), purified (Ni-NTA in 7.5 M guanidine hydrochloride), desalted) GPAEKWKPTPAPTGTVAAAVTDTQVSKDNKFDDTKTLNNAGANGSLSNSKGNLGANIAAGSGNQQDNAAAITSSAGDAATVFAVADIYQESKDNKFTNKGTQNNALLNNSANNSSGNVGVNVAAGQGNQQDNNLAIVTADGKNVAAASNTEQVSLDNHFLNEASSKHSYKPQYVVNNAGLLNSANNASGNIGVNVAAGAGNQQDNTLTLGSGCTVCAAGTGSKLAF | binds | 
10 | FapC UK4 Q89A (natural protein, Pseudomonas sp. UK4, FapC, Pseudomonas sp; UK4, point mutant made on the FapC UK4 plasmid; Same construct as m1 but for the mutation; also called Gln89 mutant; source: E. coli BL21 (DE3), purified (Ni-NTA in 7.5 M guanidine hydrochloride), desalted) GPAEKWKPTPAPTGTVAAAVTDTQVSKDNKFDDTKTLNNAGANGSLSNSKGNLGANIAAGSGNQADNAAAITSSAGDAATVFAVADIYQESKDNKFTNKGTQNNALLNNSANNSSGNVGVNVAAGQGNQQKNNLAIVTADGKNVAAASNTEQVSLDNHFLNEASSKHSYKPQYVVNNAGLLNSANNASGNIGVNVAAGAGNQQSNTLTLGSGCTVCAAGTGSKLAF | binds | 
11 | FapC UK4 Asp90Lys and Ser228Lys (natural protein, Pseudomonas sp. UK4, FapC, Pseudomonas sp; UK4, double charge mutant made on the FapC UK4 plasmid; Same construct as m1 but for the mutations; also called cluster of three positive charges (Lys90, Lys155, and Lys228); source: E. coli BL21 (DE3), purified (Ni-NTA in 7.5 M guanidine hydrochloride), desalted) GPAEKWKPTPAPTGTVAAAVTDTQVSKDNKFDDTKTLNNAGANGSLSNSKGNLGANIAAGSGNQQKNAAAITSSAGDAATVFAVADIYQESKDNKFTNKGTQNNALLNNSANNSSGNVGVNVAAGQGNQQKNNLAIVTADGKNVAAASNTEQVSLDNHFLNEASSKHSYKPQYVVNNAGLLNSANNASGNIGVNVAAGAGNQQKNTLTLGSGCTVCAAGTGSKLAF | binds | 
12 | FapC UK4 Asn87Ala (natural protein, Pseudomonas sp. UK4, FapC, Pseudomonas sp; UK4, point mutant made on the FapC UK4 plasmid; Same construct as m1 but for the mutation; also called Asn87 mutant; source: E. coli BL21 (DE3), purified (Ni-NTA in 7.5 M guanidine hydrochloride), desalted) GPAEKWKPTPAPTGTVAAAVTDTQVSKDNKFDDTKTLNNAGANGSLSNSKGNLGANIAAGSGAQQDNAAAITSSAGDAATVFAVADIYQESKDNKFTNKGTQNNALLNNSANNSSGNVGVNVAAGQGNQQKNNLAIVTADGKNVAAASNTEQVSLDNHFLNEASSKHSYKPQYVVNNAGLLNSANNASGNIGVNVAAGAGNQQSNTLTLGSGCTVCAAGTGSKLAF | binds | 
13 | FapC UK4 Gly75Ala (natural protein, Pseudomonas sp. UK4, FapC, Pseudomonas sp; UK4, point mutant made on the FapC UK4 plasmid; Same construct as m1 but for the mutation; source: E. coli BL21 (DE3), purified (Ni-NTA in 7.5 M guanidine hydrochloride), desalted) GPAEKWKPTPAPTGTVAAAVTDTQVSKDNKFDDTKTLNNAGANGSLSNSKANLGANIAAGSGNQQDNAAAITSSAGDAATVFAVADIYQESKDNKFTNKGTQNNALLNNSANNSSGNVGVNVAAGQGNQQKNNLAIVTADGKNVAAASNTEQVSLDNHFLNEASSKHSYKPQYVVNNAGLLNSANNASGNIGVNVAAGAGNQQSNTLTLGSGCTVCAAGTGSKLAF | binds | 
14 | FapC UK4 Asn229Ala (natural protein, Pseudomonas sp. UK4, FapC, Pseudomonas sp; UK4, point mutant made on the FapC UK4 plasmid; Same construct as m1 but for the mutation; source: E. coli BL21 (DE3), purified (Ni-NTA in 7.5 M guanidine hydrochloride), desalted) GPAEKWKPTPAPTGTVAAAVTDTQVSKDNKFDDTKTLNNAGANGSLSNSKGNLGANIAAGSGNQQDNAAAITSSAGDAATVFAVADIYQESKDNKFTNKGTQNNALLNNSANNSSGNVGVNVAAGQGNQQKNNLAIVTADGKNVAAASNTEQVSLDNHFLNEASSKHSYKPQYVVNNAGLLNSANNASGNIGVNVAAGAGNQQSATLTLGSGCTVCAAGTGSKLAF | binds | 
